Reference: patent US20240400675A1 (published 2024)
Where two headings read alike, the source gives them in different places.

T1: human CLDN9 (UniProt O95484 1-217)
T1 chain: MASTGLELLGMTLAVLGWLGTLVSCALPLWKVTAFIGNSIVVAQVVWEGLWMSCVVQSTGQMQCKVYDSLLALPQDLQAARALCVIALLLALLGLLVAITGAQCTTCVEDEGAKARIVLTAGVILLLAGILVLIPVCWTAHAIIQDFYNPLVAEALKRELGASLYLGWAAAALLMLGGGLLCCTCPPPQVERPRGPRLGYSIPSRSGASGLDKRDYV

T2: human CLDN6 (UniProt P56747 1-220)
T2 chain: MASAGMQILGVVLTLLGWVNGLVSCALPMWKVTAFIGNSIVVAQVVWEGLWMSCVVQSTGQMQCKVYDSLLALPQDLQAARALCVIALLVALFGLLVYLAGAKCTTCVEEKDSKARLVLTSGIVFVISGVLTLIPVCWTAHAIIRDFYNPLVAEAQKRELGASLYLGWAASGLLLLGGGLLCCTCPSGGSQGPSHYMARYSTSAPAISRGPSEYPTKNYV


Assays:
Assay in all cases: HEK293E cell binding; avid
human CLDN9 [1] = molecular target: T1, human CLDN9
human CLDN6 [2] = molecular target: T2, human CLDN6
human CLDN9 [3] = molecular target: T1, human CLDN9
human CLDN6 [4] = molecular target: T2, human CLDN6

Row | EC50 (human CLDN9 [1]) [µg/mL] | EC50 (human CLDN6 [2]) [µg/mL] | EC50 (human CLDN9 [3]) [µg/mL] | EC50 (human CLDN6 [4]) [µg/mL] | Binder
1 | 32.5 | 0.449 | – | – | XENP36041 H2.91_L1 (antibody, V domains shown) VH: EVQLVQSGAEVKKPGESLRISCKTSGYTFTEYTMHWVRQMPGKSLEWMGGIDPNNFNTHYNQKFQGHVTISVDKSISTAYLQWSSLKASDTAMYYCARIYYFGRLYFDFWGAGTLVTVSS VL: DIQMTQSPSSLSASVGDRVTITCQASEDIYNRLAWYQQKPGKVPKLLISGATSLETGVPSRFSGSGSGKDYTFTISSLQPEDIATYYCQQYWSSPLTFGGGTKVEIKR
2 | 49.3 | 0.902 | – | – | XENP36021 H2.71_L1 (antibody, V domains shown) VH: EVQLVQSGAEVKKPGESLRISCKTSGYTFTEYTMHWVRQMPGKSLEWMGGIDLNNGNTHYNQKFQGHVTISVDKSISTAYLQWSSLKASDTAMYYCARIYYFGRLYFDFWGAGTLVTVSS VL: DIQMTQSPSSLSASVGDRVTITCQASEDIYNRLAWYQQKPGKVPKLLISGATSLETGVPSRFSGSGSGKDYTFTISSLQPEDIATYYCQQYWSSPLTFGGGTKVEIKR
3 | 47.2 | 0.514 | – | – | XENP36022 H2.72_L1 (antibody, V domains shown) VH: EVQLVQSGAEVKKPGESLRISCKTSGYTFTEYTMHWVRQMPGKSLEWMGGIDANNGNTHYNQKFQGHVTISVDKSISTAYLQWSSLKASDTAMYYCARIYYFGRLYFDFWGAGTLVTVSS VL: DIQMTQSPSSLSASVGDRVTITCQASEDIYNRLAWYQQKPGKVPKLLISGATSLETGVPSRFSGSGSGKDYTFTISSLQPEDIATYYCQQYWSSPLTFGGGTKVEIKR
4 | 99.1 | 0.792 | – | – | XENP35929 H2_L1.107 (antibody, V domains shown) VH: EVQLVQSGAEVKKPGESLRISCKTSGYTFTEYTMHWVRQMPGKSLEWMGGIDPNNGNTHYNQKFQGHVTISVDKSISTAYLQWSSLKASDTAMYYCARIYYFGRLYFDFWGAGTLVTVSS VL: DIQMTQSPSSLSASVGDRVTITCQASEDIYNRLAWYQQKPGKVPKLLISGATSLETGVPSRFSGSGSGKDYTFTISSLQPEDIATYYCQQYWSAPLTFGGGTKVEIKR
5 | 31.7 | 0.404 | – | – | XENP35981 H2_L1.189 (antibody, V domains shown) VH: EVQLVQSGAEVKKPGESLRISCKTSGYTFTEYTMHWVRQMPGKSLEWMGGIDPNNGNTHYNQKFQGHVTISVDKSISTAYLQWSSLKASDTAMYYCARIYYFGRLYFDFWGAGTLVTVSS VL: DIQMTQSPSSLSASVGDRVTITCQASEDIYLRLAWYQQKPGKVPKLLISGATSLETGVPSRFSGSGSGKDYTFTISSLQPEDIATYYCQQYWSSPLTFGGGTKVEIKR
6 | 61.1 | 1.34 | – | – | XENP36025 H2.75_L1 (antibody, V domains shown) VH: EVQLVQSGAEVKKPGESLRISCKTSGYTFTEYTMHWVRQMPGKSLEWMGGIDPHNGNTHYNQKFQGHVTISVDKSISTAYLQWSSLKASDTAMYYCARIYYFGRLYFDFWGAGTLVTVSS VL: DIQMTQSPSSLSASVGDRVTITCQASEDIYNRLAWYQQKPGKVPKLLISGATSLETGVPSRFSGSGSGKDYTFTISSLQPEDIATYYCQQYWSSPLTFGGGTKVEIKR
7 | 29.2 | 0.323 | – | – | XENP35979 H2_L1.187 (antibody, V domains shown) VH: EVQLVQSGAEVKKPGESLRISCKTSGYTFTEYTMHWVRQMPGKSLEWMGGIDPNNGNTHYNQKFQGHVTISVDKSISTAYLQWSSLKASDTAMYYCARIYYFGRLYFDFWGAGTLVTVSS VL: DIQMTQSPSSLSASVGDRVTITCQASEDIVNRLAWYQQKPGKVPKLLISGATSLETGVPSRFSGSGSGKDYTFTISSLQPEDIATYYCQQYWSSPLTFGGGTKVEIKR
8 | 66.1 | 0.706 | – | – | XENP36040 H2.90_L1 (antibody, V domains shown) VH: EVQLVQSGAEVKKPGESLRISCKTSGYTFTEYTMHWVRQMPGKSLEWMGGIDPNNLNTHYNQKFQGHVTISVDKSISTAYLQWSSLKASDTAMYYCARIYYFGRLYFDFWGAGTLVTVSS VL: DIQMTQSPSSLSASVGDRVTITCQASEDIYNRLAWYQQKPGKVPKLLISGATSLETGVPSRFSGSGSGKDYTFTISSLQPEDIATYYCQQYWSSPLTFGGGTKVEIKR
9 | 18 | 0.567 | – | – | XENP36066 H2.119_L1 (antibody, V domains shown) VH: EVQLVQSGAEVKKPGESLRISCKTSGYTFTEYTMHWVRQMPGKSLEWMGGIDPNNGNTHYNQKFEGHVTISVDKSISTAYLQWSSLKASDTAMYYCARIYYFGRLYFDFWGAGTLVTVSS VL: DIQMTQSPSSLSASVGDRVTITCQASEDIYNRLAWYQQKPGKVPKLLISGATSLETGVPSRFSGSGSGKDYTFTISSLQPEDIATYYCQQYWSSPLTFGGGTKVEIKR
10 | 57.4 | 0.829 | – | – | XENP35936 H2_L1.114 (antibody, V domains shown) VH: EVQLVQSGAEVKKPGESLRISCKTSGYTFTEYTMHWVRQMPGKSLEWMGGIDPNNGNTHYNQKFQGHVTISVDKSISTAYLQWSSLKASDTAMYYCARIYYFGRLYFDFWGAGTLVTVSS VL: DIQMTQSPSSLSASVGDRVTITCQASEDIYNRLAWYQQKPGKVPKLLISGATSLETGVPSRFSGSGSGKDYTFTISSLQPEDIATYYCQQYWSGPLTFGGGTKVEIKR
11 | 492 | 0.783 | – | – | XENP36065 H2.118_L1 (antibody, V domains shown) VH: EVQLVQSGAEVKKPGESLRISCKTSGYTFTEYTMHWVRQMPGKSLEWMGGIDPNNGNTHYNQKKQGHVTISVDKSISTAYLQWSSLKASDTAMYYCARIYYFGRLYFDFWGAGTLVTVSS VL: DIQMTQSPSSLSASVGDRVTITCQASEDIYNRLAWYQQKPGKVPKLLISGATSLETGVPSRFSGSGSGKDYTFTISSLQPEDIATYYCQQYWSSPLTFGGGTKVEIKR

The next lines start with the binder.

Row | Binder | EC50 (human CLDN9 [1]) [µg/mL] | EC50 (human CLDN6 [2]) [µg/mL] | EC50 (human CLDN9 [3]) [µg/mL] | EC50 (human CLDN6 [4]) [µg/mL]
12 | XENP34218, humanized C6-30 H1L1 bivalent mAb (antibody, V domains shown) VH: QVQLVQSGAEVKKPGASVKVSCKTSGYTFTEYTMHWVRQAPGQSLEWMGGIDPNNGNTHYNQKFQGRVTITVDKSASTAYMELSSLRSEDTAVYYCARIYYFGRLYFDFWGAGTLVTVSS VL: DIQMTQSPSSLSASVGDRVTITCQASEDIYNRLAWYQQKPGKVPKLLISGATSLETGVPSRFSGSGSGKDYTFTISSLQPEDIATYYCQQYWSSPLTFGGGTKVEIKR | 11.6 | 0.344 | 54.2 | 1.24
13 | XENP35886 H1.22_L1 (antibody, V domains shown) VH: QVQLVQSGAEVKKPGASVKVSCKTSGYTFTEYTMHWVRQAPGQSLEWMGGIDPNNGNTHYNQKFQGRVTITVDKSASTAYMELSSLRSEDTAVYYCARILYFGRLYFDFWGAGTLVTVSS VL: DIQMTQSPSSLSASVGDRVTITCQASEDIYNRLAWYQQKPGKVPKLLISGATSLETGVPSRFSGSGSGKDYTFTISSLQPEDIATYYCQQYWSSPLTFGGGTKVEIKR | 24.5 | 0.941 | – | –
14 | XENP35890 H2.11_L1 (antibody, V domains shown) VH: EVQLVQSGAEVKKPGESLRISCKTSGYSFTEYTMHWVRQMPGKSLEWMGGIDPNNGNTHYNQKFQGHVTISVDKSISTAYLQWSSLKASDTAMYYCARIYYFGRLYFDFWGAGTLVTVSS VL: DIQMTQSPSSLSASVGDRVTITCQASEDIYNRLAWYQQKPGKVPKLLISGATSLETGVPSRFSGSGSGKDYTFTISSLQPEDIATYYCQQYWSSPLTFGGGTKVEIKR | 34.1 | 0.408 | – | –
15 | XENP35059 H2_L1.16 (antibody, V domains shown) VH: EVQLVQSGAEVKKPGESLRISCKTSGYTFTEYTMHWVRQMPGKSLEWMGGIDPNNGNTHYNQKFQGHVTISVDKSISTAYLQWSSLKASDTAMYYCARIYYFGRLYFDFWGAGTLVTVSS VL: DIQMTQSPSSLSASVGDRVTITCQASEDIYNRLAWYQQKPGKVPKLLISAATSLETGVPSRFSGSGSGKDYTFTISSLQPEDIATYYCQQYWSSPLTFGGGTKVEIKR | – | – | 32.7 | 1.28
16 | XENP35865 H2_L1.60 (antibody, V domains shown) VH: EVQLVQSGAEVKKPGESLRISCKTSGYTFTEYTMHWVRQMPGKSLEWMGGIDPNNGNTHYNQKFQGHVTISVDKSISTAYLQWSSLKASDTAMYYCARIYYFGRLYFDFWGAGTLVTVSS VL: DIQMTQSPSSLSASVGDRVTITCQASEDIYNRLAWYQQKPGKVPKLLISGATSLETGVPSRFSGSGSGKDYTFTISSLQPEDIATYYCQQLWSSPLTFGGGTKVEIKR | 124 | 0.686 | – | –
17 | XENP35891 H2.12_L1 (antibody, V domains shown) VH: EVQLVQSGAEVKKPGESLRISCKTSGYDFTEYTMHWVRQMPGKSLEWMGGIDPNNGNTHYNQKFQGHVTISVDKSISTAYLQWSSLKASDTAMYYCARIYYFGRLYFDFWGAGTLVTVSS VL: DIQMTQSPSSLSASVGDRVTITCQASEDIYNRLAWYQQKPGKVPKLLISGATSLETGVPSRFSGSGSGKDYTFTISSLQPEDIATYYCQQYWSSPLTFGGGTKVEIKR | 44.1 | 0.474 | – | –
18 | XENP35883 H1.19_L1 (antibody, V domains shown) VH: QVQLVQSGAEVKKPGASVKVSCKTSGYTFTEYTMHWVRQAPGQSLEWMGGIDPNNGNTHYNQKFQGRVTITVDKSASTAYMELSSLRSEDTATYYCARIYYFGRLYFDFWGAGTLVTVSS VL: DIQMTQSPSSLSASVGDRVTITCQASEDIYNRLAWYQQKPGKVPKLLISGATSLETGVPSRFSGSGSGKDYTFTISSLQPEDIATYYCQQYWSSPLTFGGGTKVEIKR | 16.8 | 0.617 | – | –
19 | XENP35888 H1.24_L1 (antibody, V domains shown) VH: QVQLVQSGAEVKKPGASVKVSCKTSGYTFTEYTMHWVRQAPGQSLEWMGGIDPNNGNTHYNQKFQGRVTITVDKSASTAYMELSSLRSEDTAVYYCARIYYLGRLYFDFWGAGTLVTVSS VL: DIQMTQSPSSLSASVGDRVTITCQASEDIYNRLAWYQQKPGKVPKLLISGATSLETGVPSRFSGSGSGKDYTFTISSLQPEDIATYYCQQYWSSPLTFGGGTKVEIKR | 43.8 | 0.657 | – | –
